The target of one data set is LEDGF/p75 93-226 (human, UniProt O75475 93-226). Nature of the data set: EMSA.
Data set [1] has as its target T1, LEDGF/p75 wild type (human, UniProt O75475 1-530). In words: EMSA. On the technique in general: Mobility shift assays separate free from complexed probe on a gel.
In data set [2] the target is T1, LEDGF/p75 wild type. In words: SPR. (SPR reads the build-up and loss of mass on a sensor chip optically.)
Data set [3] deals with LEDGF/p75 347-530 (IBD fragment) (human, UniProt O75475 347-530). In words: EMSA.
LEDGF/p75 347-530 (IBD fragment), sequence (O75475 347-530): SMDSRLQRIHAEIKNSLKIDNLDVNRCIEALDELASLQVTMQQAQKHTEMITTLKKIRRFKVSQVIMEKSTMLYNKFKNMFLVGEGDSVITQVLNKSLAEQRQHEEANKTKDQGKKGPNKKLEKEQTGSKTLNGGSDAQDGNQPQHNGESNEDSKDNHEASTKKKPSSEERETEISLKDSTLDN
Data set [4] concerns the target LEDGF/p75 1-116 (PWWP domain) (human, UniProt O75475 1-116). In words: EMSA.
Data set [5] has as its target T1, LEDGF/p75 wild type. In words: EMSA. The source holds these as a separate data set.
Data set [6] concerns the target T1, LEDGF/p75 wild type. In words: SPR. This is another data set of the same source.
A further data set concerns the target MutL3 (human, UniProt O75475 1-530, R180A;G181A;R182A;R194A;G195A;R196A). Nature of the data set: SPR.
The next data set addresses MutL4 (human, UniProt O75475 1-530, R180A;G181A;R182A). In words: SPR.
For the next data set, the target named is MutL5 (human, UniProt O75475 1-530, R194A;G195A;R196A). In words: SPR.
MutL5, sequence (O75475 whole entry R194A/G195A/R196A): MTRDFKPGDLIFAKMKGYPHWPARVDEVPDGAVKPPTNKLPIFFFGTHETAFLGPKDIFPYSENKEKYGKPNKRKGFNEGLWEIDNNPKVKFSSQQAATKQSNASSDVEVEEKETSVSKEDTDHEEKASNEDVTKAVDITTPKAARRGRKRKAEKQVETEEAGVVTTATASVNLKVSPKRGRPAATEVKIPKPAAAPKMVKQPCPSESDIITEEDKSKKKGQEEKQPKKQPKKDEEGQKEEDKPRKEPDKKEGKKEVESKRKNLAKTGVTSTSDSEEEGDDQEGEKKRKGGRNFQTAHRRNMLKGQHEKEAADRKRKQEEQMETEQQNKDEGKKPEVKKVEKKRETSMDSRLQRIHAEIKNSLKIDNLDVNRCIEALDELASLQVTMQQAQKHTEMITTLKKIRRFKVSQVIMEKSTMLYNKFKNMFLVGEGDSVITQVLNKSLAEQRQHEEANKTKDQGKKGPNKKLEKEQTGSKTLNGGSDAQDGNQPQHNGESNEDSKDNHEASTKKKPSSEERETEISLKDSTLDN

Data on six molecules can be found in paper PMC1405818.

T1 sequence (O75475 whole entry): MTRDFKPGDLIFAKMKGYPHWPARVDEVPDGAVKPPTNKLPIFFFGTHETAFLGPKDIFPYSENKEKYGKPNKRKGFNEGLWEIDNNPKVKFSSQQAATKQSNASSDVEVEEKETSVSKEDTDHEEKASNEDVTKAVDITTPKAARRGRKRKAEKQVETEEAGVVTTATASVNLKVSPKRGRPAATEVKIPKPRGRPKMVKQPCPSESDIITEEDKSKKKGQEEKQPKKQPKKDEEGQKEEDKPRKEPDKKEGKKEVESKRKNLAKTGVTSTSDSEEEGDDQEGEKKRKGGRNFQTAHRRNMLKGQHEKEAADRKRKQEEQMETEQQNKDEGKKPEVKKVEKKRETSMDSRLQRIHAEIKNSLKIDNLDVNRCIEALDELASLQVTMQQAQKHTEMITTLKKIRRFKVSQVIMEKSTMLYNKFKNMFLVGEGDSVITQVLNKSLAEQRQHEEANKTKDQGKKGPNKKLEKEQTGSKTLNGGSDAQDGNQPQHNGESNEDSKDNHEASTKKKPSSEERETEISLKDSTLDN
LEDGF/p75 93-226, sequence (O75475 93-226): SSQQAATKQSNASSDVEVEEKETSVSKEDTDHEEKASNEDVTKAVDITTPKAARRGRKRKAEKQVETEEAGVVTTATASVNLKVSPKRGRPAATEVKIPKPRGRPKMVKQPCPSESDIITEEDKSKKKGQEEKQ
MutL3, sequence (O75475 whole entry R180A/G181A/R182A/R194A/G195A/R196A): as the sequence (O75475 whole entry R194A/G195A/R196A) above, with R180A, G181A, R182A counted along it
MutL4, sequence (O75475 whole entry R180A/G181A/R182A): as the sequence (O75475 whole entry R194A/G195A/R196A) above, with R180A, G181A, R182A, A194R, A195G, A196R counted along it
LEDGF/p75 1-116 (PWWP domain), sequence (O75475 1-116): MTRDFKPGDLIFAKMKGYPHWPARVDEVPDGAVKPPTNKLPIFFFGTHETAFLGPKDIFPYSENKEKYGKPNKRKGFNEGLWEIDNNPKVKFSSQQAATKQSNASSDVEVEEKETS

B1: Mut2 EMSA duplex (AE2001/AE2002) (dsDNA)
DNA 1: TTAACGAGATAATTTTACAGA
DNA 2: TCTGTAAAATTATCTCGTTAA
Regarding B1, the binding result in the data set with LEDGF/p75 93-226 and with LEDGF/p75 wild type [1] was “binds” each time.

B2: HSE EMSA duplex (AE1197/AE1198) (dsDNA)
DNA 1: TTAACGAGAGAAGGTTCCAGA
DNA 2: TCTGGAACCTTCTCTCGTTAA
As for B2, the binding result with LEDGF/p75 93-226 and with LEDGF/p75 wild type [1] was “binds” each time.

B3: Mut2 SPR duplex (AE2043/AE2002) (dsDNA)
DNA 1: GATTTAACGAGATAATTTTACAGA
DNA 2: TCTGTAAAATTATCTCGTTAA
For B3, the binding result with LEDGF/p75 wild type [2] is recorded as “binds”.

B4: HSE SPR duplex (AE2019/AE1198) (dsDNA)
DNA 1: GATTTAACGAGAGAAGGTTCCAGA
DNA 2: TCTGGAACCTTCTCTCGTTAA
As for B4, the binding result with LEDGF/p75 wild type [2] is “binds”.

B5: Mut1 EMSA duplex (AE1199/AE2000) (dsDNA)
DNA 1: TTAACTAAATAAATTTTAAAA
DNA 2: TTTTAAAATTTATTTAGTTAA
For B5, the binding result in [3] is on record as “no binding”; in data set [4] it was “no binding”; in the data set with LEDGF/p75 wild type [5], “binds”.

B6: Mut1 SPR duplex (AE2042/AE2000) (dsDNA)
DNA 1: GATTTAACTAAATAAATTTTAAAA
DNA 2: TTTTAAAATTTATTTAGTTAA
As to B6, the binding signal in the data set with LEDGF/p75 wild type [6] was 100 % of WT stably bound; with MutL3 it was ~7 % of WT stably bound; with MutL4, ~45 % of WT stably bound; with MutL5 it was ~13 % of WT stably bound.
